Data from article PMC11403621, “Selective Aurora A-TPX2 Interaction Inhibitors Have In Vivo Efficacy as Targeted Antimitotic Agents” (Journal of Medicinal Chemistry, 2024).
No end group written: not given here.

Experiments:
[1] = target: T1, Aurora A kinase domain (residues 126–390) of human Aurora A with hexa-His tag (human, UniProt O14965 126-390); experiment: ligand-observed NMR (CPMG) competition; small-molecule fragments bound to Aurora A, displaced by added TPX2 peptide 7-22 but not by a tight-binding ATP-site ligand; details: both partners purified
T1 construct: Construct for biophysical assays; Co-expressed with λ phosphatase, so probably not phosphorylated (surmise); The crystallography constructs differ (Thr287Ala or Cys290Ala); also called Aurora A protein; pBAT4-AurAS.003; source: E. coli BL21(DE3) with pUBS520, double cistronic construct with λ phosphatase, purified (HisTrap, Superdex 75)
T1 sequence (looked up): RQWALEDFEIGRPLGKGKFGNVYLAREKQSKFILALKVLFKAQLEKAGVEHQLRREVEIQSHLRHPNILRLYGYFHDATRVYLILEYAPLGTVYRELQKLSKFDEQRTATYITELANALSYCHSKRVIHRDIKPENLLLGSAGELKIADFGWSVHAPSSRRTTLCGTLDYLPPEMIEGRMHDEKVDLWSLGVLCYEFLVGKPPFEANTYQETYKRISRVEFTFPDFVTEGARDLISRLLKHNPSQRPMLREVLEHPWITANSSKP

[2] = target: T1, Aurora A kinase domain (residues …); experiment: fluorescence polarisation; direct titration of up to 200 nM Aurora A to 11 nM labeled TPX2 peptide; 100 mM HEPES pH 7.4, 100 mM magnesium acetate, 50 mM NaCl, 0.02% P20, 1 mM DTT, 1 mM ATP, 10% (v/v) DMSO; details: both partners purified

| Binder | binding result [1] | Kd [2] |
| --- | --- | --- |
| SYSYDAPSDFINFSSL (peptide, UniProt Q9ULW0 7-22, looked up, TPX2, UniProt Q9ULW0 (printed for the longer peptide), amino acids 7-22; detailed methods are in the Supporting Information PDF) [TPX2 peptide fragment (amino acids 7–22)] | binds |  |
| GPGSYSYDAPSDFINFSSLDDEGDTQNIDSWFEEKANLENLKGGGC(Alexa Fluor 488 C5 maleimide)SS (residues left at the N-terminus before the TPX2 part in the printed peptide (after HRV 3C cleavage); TPX2, UniProt Q9ULW0, residues 7-43; C-terminal tail as printed: LK followed by the stated GGGCSS tail; the cysteine carries the dye; Whole printed peptide: [residues removed]; also called labeled TPX2 peptide; not shown: His-tag, N-terminal, cleaved; GB1, N-terminal, cleaved) [TPX2 peptide (residues 7–43) with a C-terminal GGGCSS tail, labeled with Alexa Fluor 488] |  | 1.2 nM |
